Results published in patent publication US9345682B2, “Inhibition of STAT3 signal transduction for human cancer therapy” (University of South Florida, priority 1999, dated 2016).
Non-standard residues stand in square brackets, D forms with d. No end group written: not given here. pY = N[C@@H](Cc1ccc(OP(=O)(O)O)cc1)C(=O)O

B1: rIL-12: recombinant IL-12 (Genetics Institute) (protein, UniProt P29459 23-219; P29460 23-328, looked up)
Interleukin-12 subunit alpha: RNLPVATPDPGMFPCLHHSQNLLRAVSNMLQKARQTLEFYPCTSEEIDHEDITKDKTSTVEACLPLELTKNESCLNSRETSFITNGSCLASRKTSFMMALCLSSIYEDLKMYQVEFKTMNAKLLMDPKRQIFLDQNMLAVIDELMQALNFNSETVPQKSSLEEPDFYKTKIKLCILLHAFRIRAVTIDRVMSYLNAS
Interleukin-12 subunit beta: IWELKKDVYVVELDWYPDAPGEMVVLTCDTPEEDGITWTLDQSSEVLGSGKTLTIQVKEFGDAGQYTCHKGGEVLSHSLLLLHKKEDGIWSTDILKDQKEPKNKTFLRCEAKNYSGRFTCWWLTTISTDLTFSVKSSRGSSDPQGVTCGAATLSAERVRGDNKEYEYSVECQEDSACPAAEESLPIEVMVDAVHKLKYENYTSSFFIRDIIKPDPPKNLQLKPLKNSRQVEVSWEYPDTWSTPHSYFSLTFCVQVQGKSKREKKDRVFTDKTSATVICRKNASISVRAQDRYYSSSWSEWASVPCS
B2: Fas ligand: Fas ligand (Alexis) (protein, UniProt P48023 130-281, looked up)
Tumor necrosis factor ligand …: QIGHPSPPPEKKELRKVAHLTGKSNSRSMPLEWEDTYGIVLLSGVKYKKGGLVINETGLYFVYSKVYFRGQSCNNLPLSHKVYMRNSKYPQDLVMMEGKMMSYCTTGQMWARSSYLGAVFNLTSADHLYVNVSELSLVNFEESQTFFGLYKL

Experiments:
Full length STAT3 = biological target: T1, Full length STAT3 (Homo sapiens, UniProt P40763); experiment: Phage display panning, 12-mer peptide library, on full-length GST-Stat3; type: binding
T1 construct: Full-length GST-Stat3, immobilized to glutathione-Sepharose beads, is used to screen a display peptide library; made in house; host or cells: E. coli
T1 sequence (P40763 whole entry, species assumed): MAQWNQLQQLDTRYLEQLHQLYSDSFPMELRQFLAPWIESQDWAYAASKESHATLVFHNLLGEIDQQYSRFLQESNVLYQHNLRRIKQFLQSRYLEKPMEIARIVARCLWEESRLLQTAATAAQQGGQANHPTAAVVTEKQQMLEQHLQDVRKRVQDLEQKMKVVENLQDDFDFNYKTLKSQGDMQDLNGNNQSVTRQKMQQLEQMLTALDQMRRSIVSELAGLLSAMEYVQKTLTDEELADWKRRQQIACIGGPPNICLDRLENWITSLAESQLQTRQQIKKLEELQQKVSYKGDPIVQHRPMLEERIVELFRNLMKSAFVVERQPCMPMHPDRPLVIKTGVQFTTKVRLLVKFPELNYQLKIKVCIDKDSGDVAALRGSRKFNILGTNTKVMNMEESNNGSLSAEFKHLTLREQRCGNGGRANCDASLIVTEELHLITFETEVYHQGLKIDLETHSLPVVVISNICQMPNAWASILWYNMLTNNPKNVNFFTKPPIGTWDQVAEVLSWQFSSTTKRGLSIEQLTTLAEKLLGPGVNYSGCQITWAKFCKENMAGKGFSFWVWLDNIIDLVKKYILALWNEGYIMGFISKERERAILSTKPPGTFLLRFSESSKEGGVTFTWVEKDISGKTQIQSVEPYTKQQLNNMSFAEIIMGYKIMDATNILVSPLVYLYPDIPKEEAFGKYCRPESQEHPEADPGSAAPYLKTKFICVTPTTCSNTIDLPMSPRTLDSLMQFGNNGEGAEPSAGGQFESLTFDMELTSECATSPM
Text: Phage display peptide libraries are used because of two powerful features. First, phage libraries generate an enormous diversity of peptides that can be subjected to affinity selection by panning. […] These combinatorial libraries are based on random short peptide sequences fused to a coat protein of bacteriophage, herein pIII of the filamentous coliphage MI3. Panning of the peptide library using an immobilized target, herein STAT3 fusion proteins bound onto beads, is used to select for peptide sequences that bind to STAT3. […] Peptide sequences that occur at elevated frequencies are good candidates for ST4T3-specific binding peptides. […] These cyclic peptides have the advantage of reducing entropic freedom, thereby potentially increasing binding specificity and affinity relative to linear peptides. Another variation on this approach is to combine “affinity maturation” with the phage display peptide library [Scott & Smith, 1990, Science, 249:386-390].
The GST-Stat3 fusion protein is purified on glutathione-Sepharose beads according to standard methods. The first library screened is obtained from a commercial source (New England Biolabs) and consists of random 12 amino acid sequences with a complexity of 1.9×10^9 independent transformants, each theoretically represented approximately 70 times in 1.4×10^11 phage particles. […] This is due to the inability of peptidases to cleave adjacent to proline residues in the peptide leader sequence, which is required for secretion. The titer of the original phage library after one round of amplification is 1.4×10^13 pfu/ml (plaque forming units per ml).
For panning phage with the STAT3 fusion protein, 50 ul of glutathione-Sepharose beads bound to purified GST-Stat3 fusion protein are washed with phosphate buffered saline (PBS). The beads are then incubated with 10 ul of phage suspension (1.4×10^11 virions) in 200 ul final volume of PBS for 30 min at room temperature with occasional mixing. The beads are gently pelleted in a microcentrifuge, and washed 10 times with 1 ml of PBS to remove unbound phage. Background of non-specifically bound phage is reduced by a variety of methods, including pre-blocking the beads with bovine serum albumin, pre-clearing the phage library with GST-glutathione-Sepharose beads, and washing the beads with increasing salt concentrations. Bound phage virions are eluted from the beads by incubation with a molar excess of glutathione for 30 min at room temperature. A small aliquot of the phage eluate is titered and the rest is amplified on the E. coli ER2537 host strain. Following amplification, the phage are purified by polyethylene glycol (PEG) precipitation and then the titer is determined again. Using 1-2×10^11 phage particles from the amplified eluate as input, the above binding and amplification steps are repeated a total of 3 to 4 times. After the final titering step, 40-100 isolated plaques are amplified for DNA sequencing to identify a consensus binding sequence. Sequence analysis is performed by automated sequencing on a Pharmacia ALF sequencer.
Full-length GST-Stat3, immobilized to glutathione-Sepharose beads, is used to screen a display peptide library containing 1.9×10^9 random 12-mer peptides positioned at the N-terminus of a minor coat protein (pIII) of the M13 filamentous bacteriophage. Based on their frequencies shown in Table 1, the five most promising peptides from a 12-mer peptide library that bind to full-length STAT3 are listed.

STAT3 = biological target: T2, STAT3 (Homo sapiens, UniProt P40763); experiment: Disruption of STAT3 DNA-binding activity in vitro by synthetic peptides; settings: ne = no effect
T2 construct: made in house; host or cells: Sf9 insect cells co-infected with baculoviruses for STAT3 and Src or Fes (cell extracts)
T2 sequence (P40763 whole entry, species assumed): as above
Text: A novel non-radioactive, 96-well plate based assay is used for measuring STAT3 DNA-binding activity (FIG. 30). In this high throughput assay, a biotinylated hSIE probe is used in place of the ^32P-labeled hSIE probe used for EMSA to detect binding of STAT3 dimers. The hSIE oligonucleotide is a high-affinity mutant of the original sis-inducible element in the C-fos gene promoter that binds STAT3. The biotinylated hSIE probe is immobilized onto a streptavidin-coated 96-well plate, permitting a large number of compounds and concentrations to be tested in a single experiment. The source of activated STAT3 is extracts derived from Sf9 insect cells co-infected with baculoviruses encoding STAT3 and either the Src or Fes tyrosine kinases. Using this baculovirus expression system, high levels of activated STAT3 dimers are produced as a result of phosphorylation by the co-expressed tyrosine kinases. Activated STAT3 is added to the 96-well plate in the presence or absence of the compounds to be screened. After incubation for 30 min with compounds, STAT3 dimers that bind to the biotinylated hSIE probe are detected with an anti-Stat3 primary antibody (Santa Cruz Biotechnology) followed by a horseradish-peroxidase conjugated secondary antibody. Immune complexes are detected by colorimetric conversion of the substrate, 3,3′,5,5′-tetramethylbenzidine (TMB) peroxidase, using a conventional ELISA plate reader. Epitope tagged versions of STAT3 expressed from baculoviruses have also been generated that are detected using the cognate primary antibodies. We find these anti-tag antibodies to be more sensitive and/or specific.
To facilitate these high throughput, 96-well plate assays, the screening is automated using an available Beckman 2000 Biotek robotics workstation coupled to an ELISA plate reader. The computer-programmed robotics workstation has multi-volume, multi-component mixing capability that greatly accelerates all of the high throughput assays. Inhibition of STAT3 DNA-binding activity in this assay is readily detected as a loss of signal relative to the controls without added compound. As a positive control and to establish the DNA-binding specificity, activated STAT3 is added in the presence of either excess free hSIE oligonucleotide for competition or a non-binding oligonucleotide, FIRE. […] As a negative control, extracts from IFNa-stimulated cells are used as a source of STAT1, which also binds the hSIE. Initial screens are performed at high concentrations of compounds (e.g., 100 uM), and active compounds are further tested in concentration-response studies.
A total of 19 synthetic peptides are tested based on the PY*LKTK sequence (Y*=phosphotyrosine) and their IC50 is determined in terms of disruption of STAT3 DNA-binding activity in vitro (Table 3).

[1] = test system: Bcl-xL overexpressing U266 cells; experiment: Drug-induced apoptosis in U266 cells overexpressing Bcl-xL; type: cell-based, human; settings: stable U266 clones overexpressing Bcl-xL; 24 h for melphalan and mitoxantrone
Protocol: FIG. 23 Enforced Overexpression of Bcl-x Confers Resistance to Chemotherapy. Panel A: U266 cells are transfected with a CMV expression vector encoding Bcl-x, tagged with the FLAG epitope. Several stable, independent clones overexpressing Bcl-xL, as well as empty vector controls (Neo), are isolated and analyzed by Western blot with antibodies to Bcl-xL, or the FLAG epitope tag. B: The indicated cell lines are incubated with either melphalan (LPAM) or mitoxantrone for 24 h, and apoptosis is monitored by AnnexinV-FITC staining and flow cytometry. Overexpression of Bcl-xL protects the cells from chemotherapy-induced apoptosis.
These Bcl-xL overexpressing cells are resistant to apoptosis induced by AG490, as predicted since the ectopic Bcl-xL is expressed from a CMV promoter and is thus independent of JAK-STAT signaling. […] These findings support one embodiment of the present invention, that Bcl-x confers resistance to chemotherapy-induced apoptosis, and therefore that inhibition of STAT3 signaling promotes chemotherapy-induced apoptosis.

MPC11 tumors = experiment: MPC11 myeloma tumor growth in vivo; design: species or system BALB/c mice; settings: MPC11 tumor-bearing mice, rIL-12 alone, 200 ng every second day
Protocol: Mice and tumor formation in vivo. Six- to eight-week old female BALB/c mice are obtained from the National Cancer Institute (Frederick, Md.). Cohorts of 3-5 mice per group are used for these experiments. Mice are shaved on the right flank and injected subcutaneously (s.c.) with 5×10^5 of either MOPC or MPC11 cells in […] of PBS to induce tumors.
In vivo treatment with AG-490 and IL-12. When tumors reach about 5 […] in diameter, AG-490 treatment of tumors is initiated and continued daily for 7-10 days. For MOPC tumors, injections of 0.85 mg/day of AG-490 are given intratumorally, supplemented with 0.5 mg/day of AG-490 i.p. For MPC11 tumors, the intratumoral treatment is halved while the i.p. dose remains the same. Control mice receive 50% DMSO vehicle alone in the same volume as the AG-490 treatment group. Recombinant IL-12 is given s.c. at either 100 ng or 200 ng every other day. Tumor growth is monitored daily by measuring two perpendicular tumor diameters with a caliper, and tumor volume was calculated according to the formula V=0.52*a*b(a+b)/2 (a=smallest superficial diameter; b=largest superficial diameter).

U266 cells = experiment: Fas-mediated apoptosis (Annexin V, flow cytometry) in U266 cells; type: cell-based, human; settings: 500 ng/ml CH-11 or 100 ng/ml Fas ligand
Protocol: For surface detection of the Fas receptor, 10^6 cells are suspended in […] PBS with 2.5 mg/ml mouse IgM (Sigma) and […] UB2 antibody (MBL) or IgG1, isotype control serum (Dako). Following 30 min incubation at room temperature, cells are washed with PBS, and incubated in the dark for 30 min with goat anti-mouse Ig-FITC. Fluorescence is measured on a FACScan flow cytometer and analyzed using CellQuest software (Becton Dickinson). For cell cycle analysis, 10^6 cells are fixed in ice-cold ethanol for a minimum of 2 h, washed with PBS, and stained with 5 mg/ml propidium iodide (PI) and […] at 37° C. for 30 min prior to analysis by flow cytometry. […] Apoptosis is measured by staining with Annexin V-FITC (Clontech) and flow cytometry analysis. Fas-specific death is calculated as (% Annexin V positive cells in the CH-11 treated population)−(% Annexin V positive cells in the IgM control population). Programmed cell death in cells transfected with the bicistronic green fluorescent protein vectors (pIRES-EGFP or pIRES-Stat3b) is analyzed after staining with Annexin V-PE (Pharmingen) by two color flow cytometry analysis. Apoptotic morphology of DAPI-stained nuclei and green/red fluorescence is confirmed by fluorescence microscopy.

Molecule | Frequency (out of 100 clones) (Full length STAT3) | IC50, disruption of STAT3 DNA-binding activity (STAT3) | further results
FSYPLTRAPLNM (listed as Homo sapiens) | 8% |  | 
HY(S/P)PILVYQPSW | 25% |  | 
QDVHLTQQSRYT (listed as Homo sapiens) | 13% |  | 
Y*LK ([pY]-Leu-Lys; listed as Homo sapiens) [synthetic peptide, Y* = phosphotyrosine] |  | ne | 
N[C@@H](Cc1ccc(N(CCCl)CCCl)cc1)C(=O)O [melphalan] |  |  | apoptosis induced in Bcl-xL overexpressing cells [1]: resistant
O=C1c2c(O)ccc(O)c2C(=O)c2c(NCCNCCO)ccc(NCCNCCO)c21 [mitoxantrone] |  |  | apoptosis induced in Bcl-xL overexpressing cells [1]: resistant
PYLKTK [synthetic peptide, unphosphorylated] |  | ne | 
SHPWNAQRELSV (listed as Homo sapiens) | 9% |  | 
YPAPQPLVTKTS (listed as Homo sapiens) | 8% |  | 
PFLKTK |  | ne | 
PY*AKTK (P[pY]AKTK; listed as Homo sapiens) [synthetic peptide, Y* = phosphotyrosine] |  | ne | 
B1 |  |  | tumor growth (MPC11 tumors): only slightly inhibits
B2 |  |  | Fas-mediated cell death (U266 cells): completely resistant
